# Publication PMC4385862
# Experiments:
# β1 integrin = β1 integrin (UniProt P05556); assay: co-immunoprecipitation and Western blot; settings: reference: wild-type GFP-K18; sites S52
# [1] = phosphorylation at Y342
binding against the reference (β1 integrin),Substance,other [1]
lost,keratin 18 (K18) (from UniProt P05783) S52A GFP-K18,–
–,ClC-3: Y342F,decreases
